In the NTF2 design screens of Basanta et al. (2020):

Experiment: protease stability score; higher = more stable; yeast display proteolysis, trypsin and chymotrypsin;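 note: log10 excess protease needed over predicted unfolded state with 0 meaning unfolded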

Sequence	protease stability score
DEEKLMRNMIKKVSKLLKEGNWDEIANNADKNAKYDVGDTEVHGKEHAQEMHDRFRQNVDHAELSVTRVDVKGDKVQVHVDHSFTNNGRKHKFHLIFWASNVNGRMVIKSVQQK	0.565
DEEKLREMMKKWQKVVQEKNTDEAKKLYHPNGEWENGSERDQGVEKVVKAIKTAQEKGFEFQIREVEVKGDKATMIYDLRNGDKTVTFHVEMEVDGGRVKRVRAKVSEEAKKLLTKG	0.511
DEEKLRKDMEEAFRLVTQGNPEEFADRFRDNPRMHVGDKEYHGREEARKAITTLVKHIDRIELHHIDIQGDKAEVRYRATVNGKRADHVMRIEANNGQLQRASVDPDLVTSVLR	-0.347
DEEKLRKMVETLIQAVQNGNLEKIRQMVKENVEFTLGDKTYKGQEDALKIVKHLQQVGAEAHVERQEITGDEAKVKTQWHVGDHTMEVEVVYYVRDDKVEKVEINWSEEAKKAIKAG	1.17
DEEKLRRMAERLIRAFDQGDRKRMEDNMDPNVELQVGETVFHGREQVTKALYELRKQVDHFELKSVDIKGEKVVVHVILNINGKHVEMNWVFEAHDGKVKEIKLNPDNQREAET	2.15
DEEKLVQLMDKAFKFIVNGNTEEAQKMGADNVRYEYVDKKYEGPDVAKKMAQLMQKVGVERTVKRQELKGDQATADFDYRKGDKEYRTTAEVKYEGDKIKEARVEVTDEVKEVVHQG	-0.249
DEEKMDRAKEHYKAIQKGDHERARQLADPNATFVIGDKTIHGREEYADQMKKRRDHIRIEIKSVTFNEEEGRVDVKIEQVRQHNGKPKKFRQDVKFDVQGDKIHQISVTEKK	0.189
DEEKMEDFVRKLRTGDPKQMHDNVDKDATLTIGDKKWHGRERVATAIRKWLHRADHVRIDRYDIDGDHVRIDARVTFNGKNLKVVLEYRIHNGKVKSVVLKVTSTEVQRQIDKLLS	1.37
DEEKMEIVLNAFTAMATNNEEDIERLMDPNVKVTIGDTVIHGREQLQKNADRHRRSARINIKSMSAEVQGDTVRVVVNATREHNGRPQTFQLRAVAVAHNGKVKELNVEEKQ	1.48
DEEKMKEFVKNLNTGNNHRLRKMMDEDVKVVVGDKRYKGDEQAAQFWRRILEQADDIRVNDFKVSGNTAHVDVVINWNGKHIVLDVHVEIHNGKVKQIRIEVRDEEVKRAQEEMES	1.25
DEEKMLRIAKKMVDALKNGDKDKVKKLGAEGVKVHAMDEEVEGPDQLAKYAKKFKDIGVHVEYKETEYKGDTVTFHTEAEKGDAKVRFEVHYVVKGDKVQKVEVRVDKDQLTEFRKS	0.524
DEEKNDDTARKFLEVFQEGNEDDIRRLADEDVTVEIGDSTYHGREQALTAVREWSKTVDHYSIESIHADNGRAHLHAKVVVNGKTVNLDLVVDVRNGKVKKVMIDPDRLRELKK	0.921
DEEKNEEWAEQAQHLLETGDPDKFRTMIDENAKADVGDKRLHGRETIVEEIDRMTERVDHIQITRVSAKGNRVRVKMVLRVNGVNLDVVMVFNYHNGRIKSVQVEYRNREQQKRFES	0.388
DEEKNETAKQLQRIEETGNKDEVQEMLDKDADIHIGDKVVHGREEYARQVHRRRDEINVQIDEVHYKDEEGSVVVRYTAMQEVNGRPIKNSFQRVQHIDNGRVKHMHFKFSEEQERQMRG	-0.055
DEEKNFREWLHKFNEANESNDEEELKHQMDKNAHVTYGDKTIHGRDTVAEHLANKNRRADNIEFRIRHVSVENGQLQFRIDWNLRHNGENDRFEIKVRADVHNGNVQLQEASVD	0.134
DEEKNKKIARSLFQVFRTGDENRAQDMADENATARVGDKSVHGKEEFRKFVQEFLRQVDHMDVQEYRVRGNRINIIAVIHHNGQRLKVVITIVLHNGRIVHMVIRYTNPSQWKRVMS	0.597
DEEKNQDHAKELAKAIVSNNEEDIERLMDPNATMLVGDKQVHGMEEARKLIRDLKKRADHIRVTDVTVSGNKIRVSFVMNVNGQNLQFVVDAQVHNGKITSMRIQARNDDIKRRLEQ	1.28
DEEKNQELLHHWLKQFSHGNTENLRKNVDKDVRVRVGDKVFNGRETAMRHWSEQVKQVDHVQINHVEVDGDSARADVVYVVNGRERRFEREATIKGDKFKEIEYRTN	-0.248
DEEKNREVKRFLDVMQKGDEDKLRRNVDPNVRFHIGDKTVQGHESFVEQLKTEKQHLRLRIDIKSVRATGNDIEVTAKVEYEHNGQPQHKELQIDVKMHNGRVKTIRYTRRG	0.224
DEEKNRKQATKVARNIADGNEDEIRKLADEDARANVGDKQVHGRDHVRKLLSDFHHTADRVKLDTINVSGDKVNAKLVLDYNGRRVSVVVQAEVRNGRLKQVNIRATNPEHQKKVES	0.239
DEEKNRTAARRAAEVLRTNDPDEMSKLADKDATARIGDKHFHGKETLKEAMEELKRQVDHLRVESFRLDGDKIVITAVMSHNGKKQKIVVVAEVENGKVVDFKMDPDQVTRMQK	0.532
DEEKNTRLIKEFMEALRTGDEHQVRRLMDPNAKVVYGDTRFHGREEAAKFIVEWASRIDHIDVKDMRVNGNRASLTFVANFDGRNHDVKIDFTLQDGKFRQVNFTSN	1.09
DEEKQAEDFFKEQYEIFRTGDQNREKDMVDPNANVNVGEYRYHGSKDLMKLMRQLRERVDHVQVTLRSINVKNGKAFIHVEEKFKVNGRVDTDRYVIVLSNHNGKWLLVTIQRG	0.749
DEEKQAHHLLRLLQEVLNNGDEDKARKLADPNVELSVGDKEVHGREKFTKYLYQISKRSDHANMSLTRIDTKPGRIVLVFTLRLNHNGNNTHKRMRAVASVRNGQVVVKHLVDQ	0.728
DEEKQAKTALKRYKDAIKDGDEELAKRLFDKHARIEIGDKEVHGREEIARRIREMVERADHIDIKLQSMRVRGDHIRLELTMTVNINGKKEKSRFQFVMQRRGDEVYVTSMHQT	-0.003

Sequence	protease stability score
DEEKQDTWAKEFVKMLKQGNKTDARRLFDPNATLEYGDKRVHGREQAVEAQKQRSDKVDHMQVDSVSAHNGKMDIDLVLNVNGERKRQRVVANIHNGKIKYFSVQDS	-0.248
DEEKQEQVLRDQNTNDPDQMERLLDENVKVDVGDEEIHGRETVVKFLRHFIDRIDHVDVRELSVRNGRFHIEVVYTFDGRRMRYILHMEVKDGHVKYQQIQATSDEDKKRLDEMES	2.38
DEEKQKEYADRFNEILKSGNEDEFRKMADEDVTAQYGDKEVHGREEVTKTMSRFLRTVDKIKVDSVEVHNGRVIIHFVVRVNGQDQRVVMEFKVHNGKIKELVMRSQ	1.51
DEEKQSTRALQMLHNIATGNEREAQKLMDEDVKLQVGDKHLHGKEQVRHRIHELLRTVDHMDVKDMHYSGDHVSVTAIARVNGQNQHVELSAHVSNGTIKDIRVRYS	1.25
DEEKRAEDFFRKLLQVMETGDEDKQRKMADPNARVIIGEKTFHGRENMAKAMKELRDRVDSIEFDLREIETEPGRIVINVVVILDHDGDKDERELNIRAKITGDTLVLEEIKDT	-0.309
DEEKRAKTIVKKIHKAWTHNDERTFKNMADPNAEVRVGDQTYHGMEQWQREQAKRAQNYDHVDFDVKNVEVKGEKVDILMEFQMNDNGKNDTERRVVVVVDVNGQDRIRSVHKG	-0.256
DEEKRKHAREILKVEETGNPDDLKELFDPNAKFEYGDKTFHGMTDFRQHHERVRKEMHIDIKSVSVSVHNGQAQVDVQYEHEHNGRPDSKRANRTFDIRNGRVQSATQKDDQ	-0.537
DEEKRREFAKFAMNVVQTGDPREFSKMADPNAKFDIGDKVFHGREKAVKHWEEYSQRVDHIQIQDVKFQGNEIHILAQDRHNGRDRSVVWVVTVHNGRAKYVSVDDN	0.027
DEEKVAKRFLDNWVRALHHNNEKQFKKMLPPDARVEIGDKTYNGREQVVTFFAEWAKQFDHISLDLKDMRVHNGTMDIDVKVVANDNGKNEHMRVVYVIEIKGDEATFRSATHK	1.87
DEEKVAQKFAEEMNKVWEQGDPDRMAELADEDVRMKYGDKEIHGRDDVEDHLRTVFKEVDSASIDVKRVSNHNGRVDIKASITMRDNGSHSNTNIDIKAEVSGDKVKLKEQHHQ	-0.067
DEEKVFQVLVKMVQYYVSGDAEKVKKLGKDDAKVKAVDVEYRGLEQVEKAVEQFKRYGVKLQLTDHKEDGDRVDAKLVLHLGGTTWEFRVTVRADGGKVDELKVEVSDEVMKRIQDG	0.471
DEEKVHKQAHDYRTALQRGDPDRAAHLIDKHARIRVGDHTVNGRTQFKKMMEQLHTRIDKIEFKDVDVQGNKVNINIVVEVNGRRVEVTVDLDVQGDRVKQAVLTFRDPDNAKQMLG	-0.111
DEEKVKEIAKNFADAMRNGDPDQASKLLDPNAKIHVGEFNYKGREAANRMAKTMRDQFDHLDIKSIEVSGNSIKIEAQLHYNGQTIDIELFITVHNGHIESVTLHYRNEEDEEKLQS	1.08
DEEKVKKLLEQMVRAYVSGHAEEVKKLGKDDGELHAGDQTYHGKEQIYKVVKKFKEYGVQLQITDMKYDGDRLDVKAELHHGGTTWEFRVTVQADGGKVDRLQVDVSEEAKKTIKHG	1
DEEKVKLASEIWKAFDRNNPDRVEELIDPNARFQYGDKKYHGMEQAKNHIKKILDDANIHIKSISMTDHNGKVRAEVEFVRNHNGKPQTDRVEMSAEFTNGRVTHFEVTEVP	0.871
DEEKVKNHILEALNAMMTGDPDKVRRMVDKDARLRIGEKVFHGREEVSKAAEEFREQFDHITITDYRVEPGHARVHAVINVNGKNVEITIKATATNGKIQRIVLDPRAVERLKS	0.926
DEEKVKRLLKRVAEDYVSGDAETVRKLGKDDAELEVGNTTYHGKEQMYKVVEEFKKYGVRLQVRNAEVRGNKVTMEVDLDMGGDTWKFTVHVEADGGKADKVKIDVSEEVKKRIEHG	0.291
DEEKVKVARKFMEVVKENNEEDAHRLASENVDVVVGDKRLHGRSNLMRKLRKEREEWRFRISIKDIKVENGRVHIHFKVQRVVNGQPQTYEQRMVMVFHNGRVKSVHYRIPEEQLNRIES	0.463
DEEKVNERFFTKMKKAHEHGDPDQLRTLFDPNVKVRYGDKSITGRENVVKHIKKLLDEADSVSIQLKRVRVSGNKFSFDVVVSFNINGKHDNQRVIIVAEQHNGHARVKSVQQK	0.949
DEEKVQDHNRKLWKLMKTGDSDQLRREMPPTAHAHVGDKSWHGSEAQNAMQEQARMQVDHLEVKKVDVTGDKIHQNVVRKENGRTENRVFAFQVDNGEIKQVEIRRS	-0.146
DEEKVRHQATRFFKALQTNDEDHAVKLADENVRIVIGDKTLRGREDLKDFVRKIKNQADRVELKSVEVHGNKAKLDFIVHVNGRRVKITMVIEVDNGRVSQLELNPHDVRKMEQ	1.42
DEEKVSEAHEFMQDVQNGDEKSLNDLMDKNDEVNVGDKTVHGREDFTRQFQKRRKELRLNIQSVSATRHGDSVVVHVQAQRNHNGNPEESRYVVILSKHNGRIQNVDVKEDK	0.919
DEEKVVKKHVEDLRENWRTNNEDELMKLAPPDVRVEVGDTEIHGHDQLRHWAQEMSDRIDHLEVDFRSFELENGRAEVNAKVVNNHNGKEDTNSVNITAEVQGDRMKIESMKVK	-0.492
DEEKVVKVLKQALEAVQKGNQERVRKLGKPDVEVEAVNIREKGPEALRKAAQYVQKLGDKFEYKEEREEGDKVTTKVDVTRGGQTVTYQVDVVAEGGKVKEWVVNFSDTFAERVKKS	-0.268
DEEKYKRLFRKVFEAAIKGDEEKVKKFGKPNVKYEYADKQYEGPEAMKHVVDLAKKVGAEVKTREQEVKGNTAKAKFQYKLGDRTVQTTVEVKYEGDKVKEARVKLTDEVKKILHQG	0.065
